We go through three molecules from patent US20240116985A1 (published 2024).

Starred links: 1 amine or outer side, 2 acyl side, 3 side chain; linkers in the order of their positions; H or OH if unused. Positions of bridges follow the written chain, without caps; N, C: chain ends. Non-standard residues stand in square brackets, D forms with d. Primed or numbered codes have the meaning given here. PyrS2″ = (S)-3-amino-1-((pent-4-en-1-yloxy)carbonyl)pyrrolidine-3-carboxylic acid (stapling residue), C=CCCCOC(=O)N1CC[C@@](N[*:1])(C(=O)[*:2])C1; B5(16) = 2-amino-2-(pent-4-en-1-yl)hept-6-enoic acid = 2,2-bis(4-pentenyl)glycine (stitching residue), C=CCCCC(CCCC=C)(N[*:1])C(=O)[*:2]; Phe(2-Cl) = N[C@@H](Cc1ccccc1Cl)C(=O)O; Bta = N[C@@H](Cc1csc2ccccc12)C(=O)O; αAllylPro = C=CC[C@@]1(C(=O)O)CCCN1

One assay addresses T1, B-cat-Halo (UniProt P35222 1-781).
T1 sequence (looked up): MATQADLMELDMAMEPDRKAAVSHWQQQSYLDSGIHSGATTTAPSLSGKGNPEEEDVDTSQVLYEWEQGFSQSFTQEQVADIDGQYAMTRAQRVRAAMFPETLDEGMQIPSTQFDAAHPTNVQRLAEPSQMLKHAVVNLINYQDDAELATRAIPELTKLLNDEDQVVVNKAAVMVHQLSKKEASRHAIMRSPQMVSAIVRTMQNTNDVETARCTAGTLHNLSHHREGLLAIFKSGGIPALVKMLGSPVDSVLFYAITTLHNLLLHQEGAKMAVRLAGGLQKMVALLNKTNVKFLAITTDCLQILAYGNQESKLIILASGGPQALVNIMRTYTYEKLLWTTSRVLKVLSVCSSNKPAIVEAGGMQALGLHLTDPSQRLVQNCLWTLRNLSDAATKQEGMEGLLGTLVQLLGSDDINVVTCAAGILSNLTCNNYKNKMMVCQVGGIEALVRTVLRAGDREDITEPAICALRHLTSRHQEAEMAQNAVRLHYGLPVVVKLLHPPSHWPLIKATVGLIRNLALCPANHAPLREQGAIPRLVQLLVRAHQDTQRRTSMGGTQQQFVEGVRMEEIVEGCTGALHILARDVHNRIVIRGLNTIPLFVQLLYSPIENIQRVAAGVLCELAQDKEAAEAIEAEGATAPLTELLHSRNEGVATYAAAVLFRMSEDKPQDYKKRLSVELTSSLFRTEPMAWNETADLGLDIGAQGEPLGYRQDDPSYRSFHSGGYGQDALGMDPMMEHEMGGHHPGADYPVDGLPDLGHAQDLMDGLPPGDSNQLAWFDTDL
As to the kind of experiment: cell-based or functional assay.

In assay [1] the target is T2, full-length beta-Catenin (Uniprot ID P35222) (Homo sapiens (Human), UniProt P35222 1-781).
T2 construct: Tags are not described; Also used here as the target of the DLD1 TCF reporter read-out (endogenous beta-catenin in DLD1 cells); also called bCat; B-Catenin
T2 sequence: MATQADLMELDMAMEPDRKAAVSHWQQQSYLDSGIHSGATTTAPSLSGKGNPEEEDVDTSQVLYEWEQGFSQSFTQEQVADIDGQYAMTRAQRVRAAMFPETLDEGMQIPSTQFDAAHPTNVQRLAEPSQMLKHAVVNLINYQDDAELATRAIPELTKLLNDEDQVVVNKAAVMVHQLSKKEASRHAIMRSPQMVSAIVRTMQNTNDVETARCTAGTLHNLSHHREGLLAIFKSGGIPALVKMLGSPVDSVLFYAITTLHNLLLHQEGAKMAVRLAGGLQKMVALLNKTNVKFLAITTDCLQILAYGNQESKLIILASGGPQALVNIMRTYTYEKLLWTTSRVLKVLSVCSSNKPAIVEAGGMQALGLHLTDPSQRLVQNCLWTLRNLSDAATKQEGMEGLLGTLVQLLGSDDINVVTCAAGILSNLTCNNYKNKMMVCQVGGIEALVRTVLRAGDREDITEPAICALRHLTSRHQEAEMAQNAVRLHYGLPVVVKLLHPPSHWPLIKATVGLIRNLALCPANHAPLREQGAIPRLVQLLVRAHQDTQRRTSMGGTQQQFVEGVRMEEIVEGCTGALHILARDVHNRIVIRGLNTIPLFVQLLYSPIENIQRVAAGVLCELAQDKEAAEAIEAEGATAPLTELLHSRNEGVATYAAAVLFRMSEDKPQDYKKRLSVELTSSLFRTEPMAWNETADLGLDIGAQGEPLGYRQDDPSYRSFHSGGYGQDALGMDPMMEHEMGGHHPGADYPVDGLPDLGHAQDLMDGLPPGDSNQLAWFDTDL
As to the kind of experiment: fluorescence polarization competition; full-length beta-catenin with 5FAM-TCF4(10-53) probe, peptide titrated. As for the experimental part:
(§1) The plate was incubated protected from light for 60 minutes at 20° C. prior to read. Reads were performed on a CLARIOstar plate reader (BMG Labtech) in duplicate, and data were fitted to a 1:1 binding model with hill slope using an in-house script. All provided concentrations are final concentrations.
(In general: Fluorescence polarisation rises when a labelled molecule tumbles more slowly, as on binding a larger partner.)

The target of assay [2] is T3, full-length beta-Catenin (Uniprot ID P35222) (Homo sapiens (Human), UniProt P35222 1-781).
T3 construct: also called bCat; B-Catenin
T3 sequence: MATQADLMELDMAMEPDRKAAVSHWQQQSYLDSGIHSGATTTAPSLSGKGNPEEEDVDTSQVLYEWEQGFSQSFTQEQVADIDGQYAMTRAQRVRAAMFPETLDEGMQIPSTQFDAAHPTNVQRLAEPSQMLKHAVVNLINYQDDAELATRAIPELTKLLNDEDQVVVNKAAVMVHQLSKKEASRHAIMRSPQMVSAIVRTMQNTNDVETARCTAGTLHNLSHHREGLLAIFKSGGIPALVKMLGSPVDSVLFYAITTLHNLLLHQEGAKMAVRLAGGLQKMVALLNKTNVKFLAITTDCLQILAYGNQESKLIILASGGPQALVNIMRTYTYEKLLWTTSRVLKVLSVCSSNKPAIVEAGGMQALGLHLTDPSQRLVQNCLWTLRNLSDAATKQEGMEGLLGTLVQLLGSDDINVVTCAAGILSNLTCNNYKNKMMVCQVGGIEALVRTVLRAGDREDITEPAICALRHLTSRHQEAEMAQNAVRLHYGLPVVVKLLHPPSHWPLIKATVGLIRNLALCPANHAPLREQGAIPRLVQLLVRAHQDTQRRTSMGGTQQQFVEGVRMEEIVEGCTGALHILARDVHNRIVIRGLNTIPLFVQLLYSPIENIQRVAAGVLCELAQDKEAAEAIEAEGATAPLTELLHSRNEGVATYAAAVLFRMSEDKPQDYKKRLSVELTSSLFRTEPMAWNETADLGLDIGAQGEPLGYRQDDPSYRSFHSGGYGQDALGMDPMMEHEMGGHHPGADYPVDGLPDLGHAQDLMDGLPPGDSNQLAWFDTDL
In words: fluorescence polarization competition; peptide titrated against 10 nM full-length beta-catenin + 10 nM 5FAM-TCF4(10-53). The method, then: as §1

B1: I-1047 (peptide)
peptide: Ac-[αAllylPro]DF[B5(16)]DDAAFN[PyrS2″][Phe(2-Cl)][Bta]S-NH2
modifications: staple 1-4, 4-11
notes: also called Ac-PL3-Asp-Phe-B5-Asp-Asp-Ala-Ala-Phe-Asn-PyrS2-2C1F-BztA-Ser-NH2
As for B1, the “NanoBRET Abs IC50” value with B-cat-Halo amounted to 28.4 µM. The half-inhibitory concentration (IC50) in assay [1] is 0.005 µM.

B2: I-1045 (peptide)
peptide: Ac-[αAllylPro]DF[B5(16)]DDAAFS[PyrS2″][Phe(2-Cl)][Bta]Q-NH2
modifications: staple 1-4, 4-11
notes: also called Ac-PL3-Asp-Phe-B5-Asp-Asp-Ala-Ala-Phe-Ser-PyrS2-2C1F-BztA-Gln-NH2
For the molecule B2, the “NanoBRET Abs IC50” value with B-cat-Halo was 23.9 µM. The molecule further showed an IC50 in assay [1] of 0.005 µM.

B3: I-354 (peptide)
peptide: XDAXDDAAAVXFWQ
modifications: not fully specified; N-terminal Ac; PL3 at 1, B5 at 4, S8 at 11 (staples 1-4 and 4-11 by olefin metathesis); C-terminal NH2
notes: Stapled peptide; also called Ac-PL3-Asp-Ala-B5-Asp-Asp-Ala-Ala-Ala-Val-S8-Phe-Trp-Gln-NH2
As to B3, the IC50 in assay [2] stood at 5 µM.

By IC50 is commonly meant the point on the concentration scale where inhibition reaches its midpoint.
